Patent US20030143237A1 (University of California, published 2003)

Biological target: T1, HLA-A*0201 (human)
T1 construct: MHC class I molecule on cells; detected by flow cytometry with anti-HLA-A2 antibody BB7.2; also called HLA-A2; A2.1
Assay: off-kinetics assay on acid-stripped HLA-A*0201 LCL pulsed with peptide and b2 microglobulin, flow cytometry of surface HLA-A2 (stable if MFI at least 1.5-fold over unpulsed cells)
Description: Next, MHC-peptide complex stability was determined using an off-kinetics assay. […] Each peptide was immediately pulsed onto cells at […] for 1 hour in the presence of b2 microglobulin at 3 ug/ml at room temperature. Excess peptide was washed off and the cells were incubated at 37° C. for 0, 2, 4 and 6 hours. Cells were washed at the end of each time point and stained for cell surface HLA-A2 expression, then analyzed by flow cytometry.

Row | Binder | Relative Off kinetics [h]
1 | GLSPNLNRFL (One of the four 'dominant' AFP peptides; synthesized by standard techniques) [hAFP325-334, residues 325-334 of SEQ ID NO:2] | 2
2 | GVALQTMKQ (One of the four 'dominant' AFP peptides; synthesized by standard techniques) [hAFP542-550, residues 542-550 of SEQ ID NO:2] | 6
3 | PLFQVPEPV (One of the four 'dominant' AFP peptides; synthesized by standard techniques) [hAFP137-145, residues 137-145 of SEQ ID NO:2] | 4
4 | FMNKFIYEI (One of the four 'dominant' AFP peptides; synthesized by standard techniques) [hAFP158-166, residues 158-166 of SEQ ID NO:2] | 4
